Earlier results in US11707610B2, “Ingestible device for delivery of therapeutic agent to the gastrointestinal tract” (BIORA THERAPEUTICS, INC., priority 2019, dated 2023).
Read-outs that look alike come from different tables or passages of the source.

Experiments:
[1] = self-administration of 360,000 units, medical observation
[2] = for bioavailability: by SC injection; for Approved Dosing Info: Bio Avail: Table 16, approved injection, Admin SC

infliximab [Remicade ®]
Storage temperature: time at 30° C. (30° C.): to 12 months

Dalteparin
stability at room temperature (room temperature): stable | outcome of overdose [1]: no notable sequelae | bioavailability [2]: approximately 87% | primary mode of elimination ([2]; in vivo): kidneys

Human Growth Hormone [Genotropin ®]
Storage temperature: time after reconstitution (2-8° C., after reconstitution): 2-8 °C 4 weeks

etanerecpt [Embrel ®]
Storage temperature: time at 25° C. (25° C.): 14 days

semaglutide [compound 4]
Approved Dosing Info: Bio Avail [2]: 89%

adalimumab
Approved Dosing Info: Bio Avail [2]: 64% | bioavailability [2]: 64% | bioavailability ([2]; listed as Adalimumab): approximately 64% | half-life ([2]; in vivo): approximately 2 weeks | primary mode of elimination ([2]; in vivo): intracellular catabolism

certolizumab-pegol [Cimzia ®]
Storage temperature: time at room temp (room temp): 2 hrs at
